Experimental findings from patent US20140294819A1 (NVIP, published 2014) are described below.

The target of test [1] is canine CD20 cyclic (oxidised, disulphide-bonded) peptide SEQ ID NO:2 (canine). The test can be described thus: ELISA, biotinylated oxidised peptide on streptavidin plate. The conditions noted are these: scale: fold of the binding to human CD20 peptide. On the technique in general: ELISA stands for enzyme-linked immunosorbent assay.
For test [2], the target named is T1, canine CD20 cyclic (oxidised, disulphide-bonded) peptide SEQ ID NO:2 (canine, disulphide bond between the two cysteine residues (corresponding to positions 167 and 183); N-terminal biotin in the streptavidin-plate assays).
T1 construct: Chemically synthesised and oxidised; also called C20; caCD20 peptide
T1 peptide: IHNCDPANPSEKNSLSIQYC
The test can be described thus: ELISA on cyclised CD20 peptide.

In test [3] the target is T2, murine CD20 cyclic (oxidised) peptide SEQ ID NO:6 (murine, disulphide bond between the two cysteine residues; biotinylated).
T2 construct: also called M20; mouse CD20 peptide
T2 peptide: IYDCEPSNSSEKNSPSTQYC
The test can be described thus: ELISA on cyclised CD20 peptide.

Test [4] has as its target T3, feline CD20 cyclised peptide SEQ ID NO:4 (feline, cyclised by a disulphide bond between the two cysteine residues).
T3 construct: also called feline CD20 peptide
T3 peptide: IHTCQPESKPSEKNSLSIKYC
Nature of the test: ELISA on cyclised CD20 peptide.

For test [5], the target named is T4, human CD20 cyclic (oxidised) peptide SEQ ID NO:3 (human, disulphide bond between the two cysteine residues; biotinylated).
T4 construct: also called H20; human CD20 cyclic peptide
T4 peptide: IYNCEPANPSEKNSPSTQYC
Nature of the test: ELISA on cyclised CD20 peptide.

The target of test [6] is T1, canine CD20 cyclic (oxidised, …). The test can be described thus: ELISA, CHO supernatant on canine CD20 cyclic peptide, dose response. The text has this:
This confirms the data with Bly-1 above (and by extension its humanised variant GA101) that this is a further example of a Type II anti-human CD20 monoclonal antibody that also binds to a common epitope on canine CD20, thus validating the use of the structurally constrained shared epitope on canine CD20 as a novel target for monoclonal antibodies.

Test [7] has the same target. The test can be described thus: ELISA, purified recombinant antibody on cyclic CD20 peptide. The text has this:
(§1) The RA2 and RF2 variable heavy and light chain sequences (SEQ ID NO:23-26) were rebuilt as IgG2a/kappa antibodies by oligonucleotide-based gene synthesis, cloned into pcDNA3.3 vectors and co-expressed in appropriate pairs in CHO cells. The supernatant expressed antibodies were purified by Protein A chromatography and tested for binding by CD20 peptide ELISA (FIG. 11). Both purified recombinant forms of mouse RA2 and RF2 bound strongly to cyclic canine and feline CD20 peptides, and also to mouse and human CD20 peptides (the binding of RA2 to human CD20 peptide was more pronounced than with the corresponding hybridoma supernatant in FIG. 9).

In test [8] the target is T2, murine CD20 cyclic (oxidised) peptide …. The test is described as above.
Excerpt: as §1

The target of test [9] is T3, feline CD20 cyclised peptide SEQ ID NO:4. The description is as above.
Excerpt: as §1

For test [10], the target named is T4, human CD20 cyclic (oxidised) peptide …. Described as above.
Excerpt: as §1

Regarding “B1-H299 (Beckmann Coulter) murine Type II anti-human CD20 monoclonal antibody”, the binding relative to the binding to human CD20 peptide in test [1] came to 0.167.

B1: caninised RF2, HCC isotype (antibody)
heavy: EVQLVQSGGGLVKPTESLTISCVISGFSLTSYGVHWVRQSPGKGLEWLGVIWSGGSIDYNAAFISRLSISKDNSKSTVFIRMNSLRADDTAIYYCARGPRKFYYFGMDYWGQGTSVTVSSASTTAPSVFPLAPSCGSQSGSTVALACLVSGYIPEPVTVSWNSVSLTSGVHTFPSVLQSSGLYSLSSMVTVPSSRWPSETFTCNVAHPATNTKVDKPVAKECECKCNCNNCPCPGCGLLGGPSVFIFPPKPKDILVTARTPTVTCVVVDLDPENPEVQISWFVDSKQVQTANTQPREEQSNGTYRVVSVLPIGHQDWLSGKQFKCKVNNKALPSPIEEIISKTPGQAHQPNVYVLPPSRDEMSKNTVTLTCLVKDFFPPEIDVEWQSNGQQEPESKYRMTPPQLDEDGSYFLYSKLSVDKSRWQRGDTFICAVMHEALHNHYTQISLSHSPGK
light: DIVMTQTPLSLSVSQEEEASISCRSSQNIVHSNGNTYVEWYLQKPGQSPKLLIYKVSNRFSGVPDRFSGSGSGTDFTLKISRVEAEDAGVYYCFQGSHVPLTFGAGTKLELKRNDAQPAVYLFQPSPDQLHTGSASVVCLLNSFYPKDINVKWKVDGVIQDTGIQESVTEQDKDSTYSLSSTLTMSSTEYLSHELYSCEITHKSLPSTLIKSFQRSECQRVD
notes: also called caRF2-C
With B1, the binding result in [2], in [3], in test [4] and in test [5] was “binds” in each case.

B2: recombinant caninised GA101 (full length canine antibody) (antibody, V domains shown)
VH: EVQLVQSGGEVVKPGGSLKVSCVASGYAFSYSWINWVRQAPGQGMEWVGRIFPGDGDTDYNGKFKGRVTITRDNSKSTAYLELSSLRSEDTAVYYCARNVFDGYWLVYWGQGTLVTVSS
VL: DIVMTQTPLSLSVTPEEPASISCRSSKSLLHSNGITYLYWYLQKPGQSPQLLIYQMSNLVSGVPDRFSGSGSGTDFTLKISRVEAEDVGVYYCAQNLELPYTFGAGTKVEIKR
notes: Tested as CHO cell supernatant
Take B2: the binding result in test [6] was “binds”.

B3: recombinant mouse RA2 (IgG2a/kappa) (antibody)
heavy: QVQLKQSGPGLVPPSQSLSITCTVSGFSLTNYGVHWVRQSPGKGLEWLGVIWSGGTTDYNAAFISRLSISKDNSKSQVFFKMNSLQADDTAIYYCARGPRKFYYYGMDYWGQGTSVTVSSAKTTAPSVYPLAPVCGDTTGSSVTLGCLVKGYFPEPVTLTWNSGSLSSGVHTFPAVLQSDLYTLSSSVTVTSSTWPSQSITCNVAHPASSTKVDKKIEPRGPTIKPCPPCKCPAPNLLGGPSVFIFPPKIKDVLMISLSPIVTCVVVDVSEDDPDVQISWFVNNVEVHTAQTQTHREDYNSTLRVVSALPIQHQDWMSGKEFKCKVNNKDLPAPIERTISKPKGSVRAPQVYVLPPPEEEMTKKQVTLTCMVTDFMPEDIYVEWTNNGKTELNYKNTEPVLDSDGSYFMYSKLRVEKKNWVERNSYSCSVVHEGLHNHHTTKSFSRTPGK
light: DVLMTQTPLSLPVSLGDQASISCRSSQSIVHSNGNTYLEWYLQKPGQSPKLLIYKVSNRFSGVPDRFSGSGSGTDFTLKISRVEAGDLGVYYCFQGLHVPLTFGAGTRLELKRADAAPTVSIFPPSSEQLTSGGASVVCFLNNFYPKDINVKWKIDGSERQNGVLNSWTDQDSKDSTYSMSSTLTLTKDEYERHNSYTCEATHKTSTSPIVKSFNRNEC
notes: also called muRA2
For B3, the binding result in test [7], in test [8], in test [9] and in test [10] was “binds” throughout.

B4: recombinant mouse RF2 (IgG2a/kappa) (antibody)
heavy: QVQLKQSGPGLVPPSQSLSITCTISGFSLTSYGVHWVRQSPGWGLEWLGVIWSGGSIDYNAAFISRLSISKDNSKSQVFIKMNSLQADDTAIYYCARGPRKFYYFGMDYWGQGTSVTVSSAKTTAPSVYPLAPVCGDTTGSSVTLGCLVKGYFPEPVTLTWNSGSLSSGVHTFPAVLQSDLYTLSSSVTVTSSTWPSQSITCNVAHPASSTKVDKKIEPRGPTIKPCPPCKCPAPNLLGGPSVFIFPPKIKDVLMISLSPIVTCVVVDVSEDDPDVQISWFVNNVEVHTAQTQTHREDYNSTLRVVSALPIQHQDWMSGKEFKCKVNNKDLPAPIERTISKPKGSVRAPQVYVLPPPEEEMTKKQVTLTCMVTDFMPEDIYVEWTNNGKTELNYKNTEPVLDSDGSYFMYSKLRVEKKNWVERNSYSCSVVHEGLHNHHTTKSFSRTPGK
light: DVVMTQTPLSLPVSLGDQASISCRSSQNIVHSNGNTYVEWYLQKPGQSPKLLIYKVSNRFSGVPDRFSGSGSGTDFTLKISRVEAEDLGVYYCFQGSHVPLTFGAGTKLELKRADAAPTVSIFPPSSEQLTSGGASVVCFLNNFYPKDINVKWKIDGSERQNGVLNSWTDQDSKDSTYSMSSTLTLTKDEYERHNSYTCEATHKTSTSPIVKSFNRNEC
notes: also called muRF2; mouse IgG2a variant of RF2
On to B4, for which the binding result in test [7], in test [8], in test [9] and in test [10] was “binds” each time.
